The assay addresses T1, Human LILRB3 (human, UniProt O75022 24-631).
T1 construct: whole, on cells; Endogenous receptor on primary human PBMCs and whole blood cells, not a recombinant construct; also called CD85A; ILT5
The experiment in a line: flow cytometry; human PBMCs and fresh whole blood stained with 3A3 and gated on cell subsets. As to the method: LILRB3 surface expression was measured on various hematopoietic subsets in the form of two-dimensional flow cytometry (FCM) representations called quantile contour plots (probability plots). Peripheral blood mononuclear cells (PBMCs) from a healthy human donor were stained with the LILRB3 3A3 antibody as well as antibodies specific for the indicated cell subset. FIG. 1A plots depict LILRB3 expression by gated CD3+CD4+T cells, CD3+CD8+ T cells or CD11b+ monocytes. In FIG. 1B, fresh whole blood from a healthy human donor was stained as in FIG. 1A. Plots depict LILRB3 expression by gated CD3+CD4+ T cells, CD3+CD8+ T cells, CD11b+ monocytes or CD11b+ granulocytes. Percentages of gated cells and of LILRB3+ cells within the gated population are depicted inside the plots (first and second numbers, respectively). […] Specificity of the LILRB3 staining was determined by staining all of the above cell subsets with an IgG1 isotype control antibody. Data are representative of several independent experiments utilizing different human blood samples.

Here are results for one molecule from patent US20220089723A1 (UNIVERSITY HEALTH NETWORK, published 2022).

T1 sequence (O75022 24-631): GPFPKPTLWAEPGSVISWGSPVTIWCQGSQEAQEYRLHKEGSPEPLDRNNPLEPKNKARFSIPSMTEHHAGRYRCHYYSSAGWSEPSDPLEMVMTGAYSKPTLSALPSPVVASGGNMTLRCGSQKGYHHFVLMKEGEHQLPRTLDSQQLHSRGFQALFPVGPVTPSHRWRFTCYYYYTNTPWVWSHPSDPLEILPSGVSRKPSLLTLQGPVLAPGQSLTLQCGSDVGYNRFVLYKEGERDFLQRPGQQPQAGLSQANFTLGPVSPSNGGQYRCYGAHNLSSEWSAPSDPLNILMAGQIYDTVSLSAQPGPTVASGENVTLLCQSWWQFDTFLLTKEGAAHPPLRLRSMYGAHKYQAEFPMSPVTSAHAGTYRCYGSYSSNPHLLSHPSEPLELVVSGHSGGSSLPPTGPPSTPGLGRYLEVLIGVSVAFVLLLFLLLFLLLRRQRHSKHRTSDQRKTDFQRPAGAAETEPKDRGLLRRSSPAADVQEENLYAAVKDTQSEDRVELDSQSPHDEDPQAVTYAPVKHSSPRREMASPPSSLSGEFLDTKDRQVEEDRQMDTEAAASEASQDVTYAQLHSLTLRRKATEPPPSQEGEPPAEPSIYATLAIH

B1: LILRB3 3A3 antibody (antibody, V domains shown)
VH: QVQLQQSRTELMKPGASVKLSCKATGYTFTGYWIEWVKQRPGHGLEWIGEILPGSTNINYNERFKGKATITADTSSNTAYMQLSSLTTEDSAIYYCARWASVVVGDYWGQGATLTVSS
VL: QIVLTQSPAIMSASLGERVTMTCTASSSVSSSYLHWYQQKPGSSPKLWIYSTSNLASGVPARFSGSGSGTSYSLTISSMEAEDAATYYCHQYHRSPPTFGGGTKLEIKR
notes: the entries also seem to hold an N-terminal leader and part of the constant region
Consider B1, for which the binding result was “binds”.
